Here are results for two molecules from patent US12419964B2, “Antibody drug conjugate (ADC) targeting Nectin 4 and comprising an exatecan payload” (ELI LILLY AND COMPANY, priority 2023, dated 2025).

Data set [1] deals with T1, Nectin-4 (Homo sapiens, UniProt Q96NY8).
T1 construct: endogenous in cells
T1 sequence (Q96NY8 32-510): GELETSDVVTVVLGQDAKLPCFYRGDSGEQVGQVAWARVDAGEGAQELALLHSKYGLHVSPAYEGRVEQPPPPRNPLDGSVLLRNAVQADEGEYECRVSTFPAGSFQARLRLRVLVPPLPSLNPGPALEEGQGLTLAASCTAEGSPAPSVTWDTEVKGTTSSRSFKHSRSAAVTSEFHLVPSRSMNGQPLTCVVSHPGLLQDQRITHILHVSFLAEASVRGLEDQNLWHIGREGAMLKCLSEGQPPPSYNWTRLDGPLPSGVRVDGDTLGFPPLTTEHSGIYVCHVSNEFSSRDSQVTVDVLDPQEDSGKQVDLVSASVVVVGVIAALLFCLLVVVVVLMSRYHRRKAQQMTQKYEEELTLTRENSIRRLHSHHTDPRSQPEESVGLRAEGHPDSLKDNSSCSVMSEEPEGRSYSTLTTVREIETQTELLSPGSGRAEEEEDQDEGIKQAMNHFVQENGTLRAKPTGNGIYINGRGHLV
To be noted: described in WO2022/207822 and WO2022/207825; cited from earlier work.

Data set [2] in a line: Hydrophobic interaction chromatography (HIC) versus naked 15A7.5 mAb. It is filed as physicochemical. Conditions: compared with naked 15A7.5 mAb (FIG. 2). The procedure:
As determined by SEC-HPLC, less than 5% material was aggregated. […] (See FIG. 2 and corresponding Brief Description). […] (See FIG. 3 and corresponding Brief Description). In vitro cytotoxic activity was assessed for the HCT-116-2G10 clone expressing human nectin-4. (See FIG. 4 and corresponding Brief Description).

B1: 15A7.5: anti-Nectin-4 monoclonal antibody described in WO2022/207822 and WO2022/207825 (antibody)
heavy: EVQLVESGGGLVQPGGSLRLSCAASGFTFSNYGMAWVRQAPGKGLEWVSFISNLAYGINYADTVTGRFTISRDNAKNSLYLQMNSLRAEDTAVYYCARGARATGWFAYWGQGTLVTVSSASTKGPSVFPLAPSSKSTSGGTAALGCLVKDYFPEPVTVSWNSGALTSGVHTFPAVLQSSGLYSLSSVVTVPSSSLGTQTYICNVNHKPSNTKVDKRVEPKSCDKTHTCPPCPAPEFEGGPSVFLFPPKPKDTLMISRTPEVTCVVVDVSHEDPEVKFNWYVDGVEVHNAKTKPREEQYNSTYRVVSVLTVLHQDWLNGKEYKCKVSNKALPASIEKTISKAKGQPREPQVYTLPPSREEMTKNQVSLTCLVKGFYPSDIAVEWESNGQPENNYKTTPPVLDSDGSFFLYSKLTVDKSRWQQGNVFSCSVMHEALHNHYTQKSLSLSPGK
light: DIQMTQSPSSLSASVGDRVTITCKASQNVDTHVAWYQQKPGKAPKALIYSASYRYSGVPSRFSGSGSGTDFTLTISSLQPEDFATYYCQQYNSYPLTFGGGTKVEIKRTVAAPSVFIFPPSDEQLKSGTASVVCLLNNFYPREAKVQWKVDNALQSGNSQESVTEQDSKDSTYSLSSTLTLSKADYEKHKVYACEVTHQGLSSPVTKSFNRGEC
Consider B1, for which the “selectivity of affinity, tumor cells versus keratinocytes” value in data set [1] is “selective affinity for tumor cells versus keratinocytes”.

B2: ETx-22: ADC of H1L2_15A7.5 anti-Nectin-4 mAb (HC SEQ ID NO:5, LC SEQ ID NO:6) conjugated via cysteines to exatecan Linker-Payload of Formula (L-P′) (conjugate)
heavy: B1 heavy
light: B1 light
modifications: exatecan linker-payload conjugated via cysteines
Regarding B2, the “hydrophilicity by HIC profile” value in data set [2] is reported as “high homogenous hydrophilicity”.
